Results as given in FireProtDB (doi:10.1093/protein/gzi067).

B1: Cytochrome b5, P00171 (parent)
chain: MAEESSKAVKYYTLEEIQKHNNSKSTWLILHYKVYDLTKFLEEHPGGEEVLREQAGGDATENFEDVGHSTDARELSKTFIIGELHPDDRSKITKPSESIITTIDSNPSWWTNWLIPAISALFVALIYHLYTSEN

Variants of: B1
Details: Bos taurus, pH 7, 25 °C, CD, MOPS 30 mM, reversible: yes (partial), structure 1CYO, whole UniProt chain shown

Variant | ddG of mutation (higher = less stable) (GdnHCl) [kcal/mol] | denaturant midpoint (higher = more stable) (GdnHCl) [M] | unfolding free energy (GdnHCl) [kcal/mol] | denaturant midpoint (higher = more stable) (GdnSCN) [M]
MAEESSKAVKYYTLEEIQKHNNSKSTWLILHYKVYDITKFLEEHPGGEEVLREQAGGDATENFEDVGHSTDARELLKTFIIGELHPDDRSKITKPSESIITTIDSNPSWWTNWLIPAISALFVALIYHLYTSEN [S76L L37I] | -0.5 | 1.9 | 3.5 | 1.8
MAEESSKAVKYYTLEEIQKHNNSKSTWLILHYKVYDLTKFLEEHPGGEEVLREQAGGDATENFEDVGHSTDARELLKTFIIGELHPDDRSKITKPSESIITTIDSNPSWWTNWLIPAISALFVALIYHLYTSEN [S76L] | -0.8 | 2.3 | 3.8 | 1.59
